Source: patent US20180346555A1 (Regeneron, published 2018)

B1: H4H17027P (antibody, human IgG4, V domains shown)
VH: EVQLVESGGGLVQPGGSLRLSCAASGFTFRNYAMHWVRQAPGEGLEWVAAIYRNSDSIDYADSVKGRFTISRDNAKNSLYLQMNSLKTEDTALYYCAKDEGFLEYFDSWGQGTLVTVSS
VL: EIVLTQSPGTLSLSPGERASLSCRASQSVSSSFLAWYQQKPGQAPRLLIYGVSSRFIGIPDRFSGGGSGTDFTLTITRLEPEDFAVYYCQQYGRSPWTFGQGTKVEIK
notes: Fully human antibody with human IgG4 Fc (H4H prefix)
B2: H4H16991P (antibody, human IgG4, V domains shown)
VH: QVQLVQSGAEVRKPGASVKVSCKASGYTFTGYYLHWVRQAPGQGLEWMGLINPNTGGTNFAQKFQGRVTMTRDSSISAAYMELSRLRSDDTAVYYCARQHWNRYFDNWGQGTLVTVSS
VL: DIQMTQSPSTLSASVGDRVTITCRASQSVGNWLAWYQQKPGKAPKLLIQEASSIESGVPSRFSGSGSGTEFTLIVSSLQPDDFATYYCQQYNSYSWTFGHGTKVEIK
notes: as for B1
B3: H4H17033P (antibody, human IgG4, V domains shown)
VH: QVQLVQSGAEVKKPGASVKVSCKASGYTFAAHYMHWVRQAPGQGLEWMGWINTYTGGTNYGQKFQGRVTMTRDTSITTAYMELSRLRSDDTAVYYCARDRRNWNFVFEYWGQGTLVTVSS
VL: DIQMTQSPSSLSASVGDRVTISCRASQNIKNYLNWYQQKPGKAPKLLIYEASNLQSGAPSRFSGSGSGTDFTLTISSLEPEDFATYYCQQSFSIPWTFGQGTKVEIK
notes: as for B1
B4: H4H17082P2 (antibody, human IgG4 S228P, kappa, V domains shown)
VH: QVQLVQSGAEVKKPGASVKVSCKASGYTFISYNIFWVRQATGQGLDWMGWMNPFRNNAGYAQKFQGRVTVTWDTSISTAYMELSSLSSEDTAIYYCAREHGSSWGFFDYWGQGTLVTVSS
VL: not shown
notes: human IgG4 Fc; also called REGN5715; MAB2
B5: H4H16992P (antibody, human IgG4 S228P, kappa, V domains shown)
VH: QVQLQESGPGLVKPSETLSLTCSVSGGSITNYFWTWIRQSPGKGLEWIGYIYYSGGTNYNPSLKSRVTISIDTSKNQFSLNMNSVTAADTAVYYCAGSYYYGVDVWGQGTTVTVSS
VL: EIVLTQSPATLSLSPGERATLSCRASQSIKSFLAWYRQKPGQAPRLLIYDASNRPTGIPARFSGSGSGTDFTLTINSLESEDFAVYFCQQRNNWPFTFGPGTKVDIKR
notes: human IgG4 Fc; also called REGN5713; MAB1
B6: H4H17038P2 (antibody, human IgG4 S228P, kappa, V domains shown)
VH: EVQLVESGGDLVQPGGSLRLSCAASGFTFSSYEMNWVRQAPGKGLEWVSFISDSSSNIYYADSVKGRFTISRDNAKKSLYLQMTSLRAEDTAVYYCAREAIGSTSFDNWGQGTLVTVSS
VL: EIVMTQSPATLSVSPGERATLSCRASQSVSSSLAWYQQKPGQAPRRLIYSASTRATGIPARFSGSGSGTEFTLTISSLQSEDFAIYYCHQYNNWPLTFGGGTKVEIKR
notes: human IgG4 Fc; also called REGN5714; MAB3
B7: H4H17028P (antibody, human IgG4, V domains shown)
VH: QVQLVESGGGVVQPGRSLRLSCAASGFTFSRYAIHWVRQAPGKGLEWVAVISYDGDDKYYGDSVKGRFTISRDNSKTMVYLHMNSLRTEDTAVYYCAKDGYSLYGKDYFDYWGQGTLVTVSS
VL: EIVLTQSPGTLPLSPGERATLSCRASQSITNSYLAWYQQKPDQAPRLLIYGASSRATGIPDRFSGSESGTDFTLTISRLEPEDFAVYYCQQYVRSPWTFGQGTKVEIK
notes: as for B1
B8: H4H17015P (antibody, human IgG4, V domains shown)
VH: QVQLQESGPGLVKPSQTLSLTCTVSGGSISSADHYWSWIRQQPGKGLEWIGYISYRGTTYYNPTLESRVSISVDTFKNQFSLMLHSVTVADTAVYYCAKVLQGLVRFRDYGFDVWGQGTTVTVSS
VL: DIQLTQSPPFLSASVGDRVTITCWASQDISSYLAWYQQNPGKSPKLLIYDAFTLHTGVPSRFSGSGSGTEFTLTISSLQPEDFATFYCQHLYSFPFTFGPGTKVDIK
notes: as for B1
B9: H4H17001P (antibody, human IgG4, V domains shown)
VH: QVQLVESGGGLVKPGGSLRLSCAASGFTFSDYYMNWIRQAPGKGLEWISLISSSGSAIYYSDSVKGRFTISRDNARKSLYLQVNSLRAEDTAVYYCARDRGEWALGAYYYGLDVWGQGTTVTVSS
VL: DIVMTQSPLSLPVTPGEPASISCRSSQSLLHSDGYNYLDWYLQKSGQSPQLLIYLGSNRASGVPDRFSGSGSGTDFTLKISRMEAEDVGVYYCMQALQTPYTFGQGTKLEIK
notes: as for B1
B10: H4H17045P2 (antibody, human IgG4, V domains shown)
VH: EVQLVESGGGLVQPGVSLRLSCVASGFTFSNYDITWIRQIPGKGLEWVSRISGSGGSTYFADSVKGRFIISRDNSKNTVYMQMNSLRAEDSAVYYCARRDSVLFSMNSWLDPWGQGTLVTVSS
VL: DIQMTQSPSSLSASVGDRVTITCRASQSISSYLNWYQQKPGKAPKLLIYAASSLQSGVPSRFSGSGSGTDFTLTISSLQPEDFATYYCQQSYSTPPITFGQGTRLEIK
notes: as for B1
B11: H4H17067P2 (antibody, human IgG4, V domains shown)
VH: EVQLVQSGAEVKKPGESLKISCSGSGYRFTNYWIAWVRQMPGKGLEWMGLIHPDDSDIRYSPSFQGQVTFSVDKSINTAYLQWSSLKASDTAMYYCTRQDGILWSHNAWFDPWGQGTLVTVSS
VL: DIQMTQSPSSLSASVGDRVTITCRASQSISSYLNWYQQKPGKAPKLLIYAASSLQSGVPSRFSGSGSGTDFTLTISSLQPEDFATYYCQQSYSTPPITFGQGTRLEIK
notes: as for B1
B12: H4H17031P (antibody, human IgG4, V domains shown)
VH: QVQLQQWGAGLLKPSETLSLTCVVYGESFGNYHWNWIRQSPGKRLEWIGEINQNGHTNYNPSLKSRVTISVDTSKIQFSLRLNSVTAADTAVYFCARGHNYVNSYFGLDVWGQGTTVTVSS
VL: EIVMTQSPATLSVSPGERATLSCRTSQSVSISLAWYQRKPGQAPRLLIFGSSTRATGVPARFSGSGSGTEFTLTISSLQSEDFAVYYCQQYNNWPYTFGQGTKLEIK
B13: H4H17031P (antibody, human IgG4, V domains shown)
VH: B12 VH
VL: B12 VL
notes: as for B1

What was measured:
[1] = target: T1, Hazel (Cor A 1, MyBiosource, Cat# MBS5304600) (Hazel, UniProt Q08407 2-160, limits assumed); assay: SPR Biacore 4000, mAb captured by anti-human Fc, 25 C;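 note: allergen analyte binding to captured, purified anti-Bet v 1 monoclonal antibodies, SPR in HEPES-buffered saline running buffer with EDTA and Tween-20 at pH 7.4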
T1 construct: Bought reagent
T1 sequence (looked up): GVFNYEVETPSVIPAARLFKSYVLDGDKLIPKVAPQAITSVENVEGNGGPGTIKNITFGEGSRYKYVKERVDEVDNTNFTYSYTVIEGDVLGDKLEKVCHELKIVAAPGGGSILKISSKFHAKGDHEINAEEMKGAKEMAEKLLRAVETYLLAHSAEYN

natural Bet v 1 [2] = target: T2, natural Bet v 1 (Betula verrucosa (Betula pendula), UniProt P15494 2-160); assay: SPR Biacore 4000, mAb captured on anti-human Fc, 37C;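 note: kinetic rate constants from SPR sensorgrams fitted to a 1:1 model with mass transport limitation, HBS-ET buffer pH 7.4, KD and t½ derived from the rate constants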
T2 construct: Bought natural protein; also called nBet v 1
T2 chain: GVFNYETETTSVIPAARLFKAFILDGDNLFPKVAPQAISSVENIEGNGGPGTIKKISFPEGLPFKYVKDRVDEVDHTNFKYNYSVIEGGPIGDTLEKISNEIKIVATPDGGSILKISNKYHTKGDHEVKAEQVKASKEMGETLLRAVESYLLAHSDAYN

natural Bet v 1 [3] = target: T2, natural Bet v 1; assay: SPR Biacore 4000, mAb captured on anti-human Fc, 25C;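 note: purified anti-Bet v 1 mAbs probed with natural Bet v 1 in HBS-ET buffer (HEPES, NaCl, EDTA, Tween-20) at pH 7.4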
natural Bet v 1 [4] = target: T2, natural Bet v 1; assay: SPR Biacore 4000, mAb captured on anti-human Fc, 37C; 37 C;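 for 100 nM natural Bet v 1 Bound (RU): kinetic rate constants from SPR sensorgrams fitted to a 1:1 model with mass transport limitation, HBS-ET buffer pH 7.4, KD and t½ derived from the rate constants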;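 for t½: kinetic rate constants from SPR sensorgrams fitted to a 1:1 model with mass transport limitation, HBS-ET buffer pH 7.4, KD and t½ derived from the rate constants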

Row | Binder | 100 nM Analyte Bound (RU) [1] [RU] | binding result [1] | also measured
1 | B1 | 0 | no binding (tested: 100 nM) | 
2 | B2 | 0 | no binding (tested: 100 nM) | 
3 | B3 | 0 | no binding (tested: 100 nM) | 
4 | B4 | 20 |  | 
5 | B5 | 0 | no binding (tested: 100 nM) | 
6 | B6 | 0 | no binding (tested: 100 nM) | 
7 | B7 | 0 | no binding (tested: 100 nM) | 
8 | B8 | 1 | no binding (tested: 100 nM) | 
9 | B9 | 0 | no binding (tested: 100 nM) | 
10 | B10 | 0 | no binding (tested: 100 nM) | 
11 | B11 | -1 |  | 
12 | B12 |  |  | 100 nM natural Bet v 1 Bound (RU) (natural Bet v 1 [2]): 63 RU; t½ (natural Bet v 1 [2]): 2.1 min; 100 nM natural Bet v 1 Bound (RU) (natural Bet v 1 [3]): 54 RU; Kd (natural Bet v 1 [3]): 13.5 nM; koff (natural Bet v 1 [3]): 0.00168 s⁻¹; kon (natural Bet v 1 [3]): 124000 M⁻¹ s⁻¹; t½ (natural Bet v 1 [3]): 6.8 min; Kd (natural Bet v 1 [4]): 27.9 nM; koff (natural Bet v 1 [4]): 0.00544 s⁻¹; kon (natural Bet v 1 [4]): ~195000 M⁻¹ s⁻¹
13 | B13 | 0 | no binding (tested: 100 nM) | 
